Patent publication US20140154243A1 (Amgen, published 2014)
Residue numbers refer to the chain shown, from its start.

B1: antibody 1.24.1 (antibody, human IgG2, kappa, V domains shown)
VH: QVQLVESGGGLVKPGGSLRLSCAASGFTFSDYYMSWIRQAPGKGLEWVSYISSSGSTIYYADSVKGRFTISRDNAKNSLYLQMNSLRAEDTAVYYCARDEYNSGWYVLFDYWGQGTLVTVSS
VL: DIQMTQSPSSVSASVGDRVTITCRASQGISSWLAWYQQKPGKAPNLLIYEASSLQSGVPSRFGGSGSGTDFTLTISSLQPEDFATYYCQQANGFPWTFGQGTKVEIKR
notes: also called antibody to HGF ultimately derived from hybridoma 1.24.1
B2: antibody 1.74.3 (antibody, human IgG2, kappa, V domains shown)
VH: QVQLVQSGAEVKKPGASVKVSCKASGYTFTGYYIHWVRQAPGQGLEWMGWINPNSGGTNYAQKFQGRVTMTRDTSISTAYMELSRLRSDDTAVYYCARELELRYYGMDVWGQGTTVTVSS
VL: DIQMTQSPSSLSASVGDRVTITCRASQSINSDLNWYQQKPGKVPKLLIYVASSLQNGVPSRFSGSGSGTDFTLTISSLQPEDFATYYCQRSYSTPPTFGPGTKVDIKR
notes: also called 1.74.1; 1.74.2
B3: antibody 1.60.1 (antibody, human IgG2, kappa, V domains shown)
VH: QVQLVQSGAEVKKPGASVKVSCKASGYTFTGYYINWVRQAPGQGLEWMGWINPNSGGTNYAQKFQGRVTMTRDTSITTAYMELSRLRADDTAVYYCARELELRYYGMDVWGQGTTVTVSS
VL: DIQMTQSPSSLSVSVGDRVTITCRASQGISSYLAWYQQKPGKVPKLLIYVASTLQSGVPSRFSGSGSGTDFTLTISSLQPEDVATYYCQNYNSDPLTFGGGTKVEIKR
notes: also called antibody to HGF ultimately derived from hybridoma 1.60.1
B4: antibody 1.75.1 (antibody, human IgG2, kappa, V domains shown)
VH: QVQLQESGPGLVKPSQTLSLTCTVSGGSISSGGYYWSWIRQHPGKGLEWIGYIYYSGSTYYNPSLKSRVTISVDTSKNQFSLKVSSVTAADTAVYYCARDPLWFGEFDYYGMDVWGQGTTVTVSS
VL: DIQMTQSPSSLSASVGDRVTITCRASQGIRNDLGWFQQKPGKAPKRLIYAASSLQSGVPSRFSGSGSGTEFTLTISSLQPEDFATYYCLQHDSYPLTFGGGTKVEIKR
notes: also called antibody to HGF ultimately derived from hybridoma 1.75.1
B5: antibody 2.40.1 (antibody, human IgG2, kappa, V domains shown)
VH: QVQLQESGPGLVKPSQTLSLTCTVSGGSISSGGYYWSWIRQHPGKGLEWIGNIYYSGITYYNPSLKSRVTMSVDTSKNQFSLKLSSVTAADTAVYYCARDPLYGDYGFDPWGQGTLVTVSS
VL: B4 VL with F36Y, A50V, D92N
notes: also called antibody to HGF ultimately derived from hybridoma 2.40.1
B6: antibody 1.29.1 (antibody, human IgG2, kappa, V domains shown)
VH: QVQLVESGGGVVQPGRSLRLSCAASGFTFSSYGMHWVRQAPGKGLEWVAVIWYDGSDKYYADSVKGRFTISRDNSKNTLYLQMNSLRAEDTAVYYCAREDYGEGFDYWGQGTLVTVSS
VL: not shown
notes: also called antibody to HGF ultimately derived from hybridoma 1.29.1
B7: antibody 1.61.3 (antibody, human IgG2, kappa, V domains shown)
VH: QVQLQESGPGLVKPSQTLSLTCTVSGGSISSDGYYWSWIRQHPGKGLEWIGYIYYSGSTYYNPSLKSRVTISVDTSKNQFSLKLSSVTAADTAVYYCARSHLHYYDSSGYYYGGAFDIWGQGTMVTVSS
VL: DIQMTQSPSSLSASVGDRVTITCQASQDISNYLNWYQQKPGTAPKLLIYGASDLETGVPSRFSGSGSGTDFTFAISSLQPEDIATYYCQQYDNLPYNFGQGTKLEIKR
notes: also called antibody to HGF ultimately derived from hybridoma 1.61.3
B8: antibody 3.10.1 (antibody, human IgG1, kappa, V domains shown)
VH: QVQLQQWGAGLLKPSETLSLTCAVYGGSFSTYYWSWIRQPPGKGLEWIGEINHSGSTNYNPSLKSRVTISVDTSKNQFSLKLSSVTAADTAVYYCARGGYDFWSGYYDYWGQGTLVTVSS
VL: not shown
notes: also called antibody to HGF ultimately derived from hybridoma 3.10.1

What was measured:
mouse HGF [1] = target: T1, mouse HGF (mouse, UniProt Q08048 33-728); assay: Western blot, non-reducing and reducing SDS-PAGE
T1 construct: also called recombinant mouse HGF; mHGF
Experimental: Human HGF and mouse HGF were run on separate lanes of SDS PAGE gels. Human HGF and mouse HGF were each separately run at 100 ng/lane and at 10 ng/lane. Some gels were run under non-reducing conditions and other separate gels were run under reducing conditions using beta-mercaptoethanol. The human HGF and mouse HGF in the SDS PAGE gels were transferred to nitrocellulose membranes. Those membranes were separately incubated with one of the ten antibodies to HGF described in Example 6. Each of the ten antibodies to HGF was separately incubated with nitrocellulose membranes from gels containing human HGF and mouse HGF under reducing and with nitrocellulose membranes from gels containing human HGF and mouse HGF under non-reducing conditions. The membranes were then incubated with a goat anti-human IgG antibody linked to HRP (Pierce, Rockford, Ill., Cat. #31412). Signal from that goat anti-human IgG antibody linked to HRP was detected by […] (ECL™; Amersham Pharmacia Biotech, Piscataway, N.J., Cat. # RPN₂₁₀₆) following the manufacturer's instructions.

[2] = target: T2, human hepatocyte growth factor (HGF) (human, UniProt P14210 32-728); assay: neutralization ELISA (right table): inhibition of the binding of soluble Met (2 nM) to plate-coated HGF, detected with biotinylated anti-cMetR antibody and Eu-streptavidin; column head 'IC50 IP (nM)'
T2 construct: Recombinant protein; The mature protein is a heterodimer of the alpha and beta subunits; also called human HGF; full length HGF
Experimental: (§1) A neutralization ELISA assay was developed to assess whether the antibodies discussed in Example 6 could interrupt Met-HGF binding. Delphia 96-well plates (Cat#: AAAND-0001, Wallac Inc., Gaithersburg, Md.) were coated with HGF by adding 100 μl of HGF at 6.25 μg/ml per well. The plates were incubated at 37° C. for 1 hour or at 4° C. overnight. The plates were then blocked with 5% BSA (Cat#50-61-00, KPL, Gaithersburg, Md.) in PBS containing 0.1% Tween 20 for 1 hour at room temperature with shaking.
(§2) Test samples were prepared by separately mixing soluble Met (2 nM, 0.256 μg/ml) with different concentrations of a particular antibody to HGF being tested. The concentrations tested were: 667 nM, 223 nM, 74.1 nM, 24.7 nM, 8.2 nM, 2.7 nM, 0.91 nM, 0.30 nM, 0.10 nM, and 0.034 nM. A volume of 100 μl of a test sample was added to each well of the plates. The plates were then incubated at 4° C. overnight and then washed 4 times with PBS containing 0.1% Tween 20. Next, 100 μl per well of Biotinylated anti-cMetR antibody (Cat#: BAF358, R&D Systems Inc., Minneapolis, Minn.) at 2 μg/ml, was added. […] The plates were then incubated for 2 hours with shaking, and were washed 4 times with PBS containing 0.1% Tween 20. Eu-streptavidin (1:1000 dilution in Assay buffer) (Cat#1244-360, Wallac Inc., Gaithersburg, Md.) was added and the plates were shaken at room temperature for 1 hour. The plates were then washed 4 times with PBS containing 0.1% Tween 20. Next, 100 μl of enhancement buffer (Wallac Inc., Cat#: 1244-105, Gaithersburg, Md.) was added. After at least for 5 minutes, the plates were read using Europium method on Victor 2 (1420 Multilabel Counter, Wallac Inc., Gaithersburg, Md.).
(§3) Percent inhibition of Met binding to HGF (i.e. neutralization) was calculated and IC₅₀ values were determined using the 4 parameter fit equation Excelfit, Version 2.0.6, (Microsoft Inc, Seattle, Wash.). In the presence of the antibodies to HGF discussed in Examples 6, Met binding to HGF was neutralized.

[3] = target: T2, human hepatocyte growth factor (HGF); assay: neutralization ELISA (left table): inhibition of the binding of soluble Met (2 nM) to plate-coated HGF, detected with biotinylated anti-cMetR antibody and Eu-streptavidin; column head 'IC50 IP (nM)'
Experimental: as §1, §2, §3

[4] = target: T2, human hepatocyte growth factor (HGF); assay: cell-based or functional assay
[5] = target: T2, human hepatocyte growth factor (HGF); assay: BIAcore 3000, equilibrium/solution method: antibody (0.01-50 nM) incubated with human HGF (0.05 nM and 1 nM), free HGF measured on a chip carrying the same antibody
Experimental: That method was performed with a BIAcore®3000 (Biacore, Inc., Piscataway, N.J.) using PBS with 0.005% P20 surfactant (BIAcore, Inc. Piscataway, N.J.) as running buffer. The four antibodies to HGF were separately immobilized to research grade CM5 sensor chips (Biacore, Inc. Piscataway, N.J.) via primary amine groups using an Amine Coupling Kit (Biacore, Inc. Piscataway, N.J.) following the manufacturer's instructions.
In separate assays, each of the four antibodies to HGF, over a range of concentrations (from 0.01 nM to 50 nM) was separately incubated with each of two different concentrations (0.05 nM and 1 nM) of human HGF in PBS with 0.005% P-20 and 0.1 mg/mL BSA at room temperature for at least six hours. Each of those samples was then injected over a surface of a CM5 sensor chip onto which the same antibody to HGF had been immobilized. The binding signal obtained was proportional to the free HGF in solution. The dissociation equilibrium constant (KD) was obtained from nonlinear regression analysis of the competition curves using a dual-curve one-site homogeneous binding model (KinExA software, Sapidyne Instruments Inc., Boise Id.).

[6] = target: T2, human hepatocyte growth factor (HGF); assay: BIAcore 3000, kinetic method: antibody captured on immobilized Protein G, human HGF (0-100 nM) injected
Text: The running buffer for those analyses was PBS with 0.005% P20 surfactant (BIAcore, Inc. Piscataway, N.J.). Recombinant Protein G (Pierce, Rockford, Ill.) was immobilized to a research grade CM5 sensor chip (Biacore, Inc. Piscataway, N.J.) via primary amine groups using the Amine Coupling Kit (Biacore, Inc. Piscataway, N.J.), according to the manufacturer's instructions.
In six separate samples, about 200 resonance units (RU) of each of the six antibodies to HGF was separately attached to immobilized Protein G following the manufacturer's instructions. Samples comprising various concentrations (0-100 nM) of human HGF were injected over the bound antibody surface at a flow rate of 50 μl/min for 3 minutes. Antibody binding kinetic parameters including kₐ (association rate constant), kd (dissociation rate constant), and KD (dissociation equilibrium constant) were determined using the BIA evaluation 3.1 computer program (BIAcore, Inc. Piscataway, N.J.). Lower dissociation equilibrium constants indicate greater affinity of the antibody for HGF.

mouse HGF [7] = target: T1, mouse HGF; assay: FACS bead assay: antibody incubated with the avidin fusion of mouse HGF, captured on biotin-coated beads; FITC anti-avidin (x) against PE goat anti-human F(ab')2 (y)
Experimental: After incubation, the fusion proteins in each sample were separately captured using biotin-coated beads (Spherotech Inc., Libertyville, Ill., Cat # TP-60-5). The resulting bead-protein complexes were labeled by adding FITC labeled anti-avidin antibody (Vector Lab, Burlingame, Calif., Cat. # SP-2040). The presence of antibodies to HGF was determined by adding phycoerythrin (PE) labeled goat anti-human F(ab′)2 antibody (Southern Biotech Associates, Inc, Birmingham, Ala., Cat #2043-09).
Those samples were then subjected to Fluorescence Activated Cell Sorter (FACS) analysis. Bead complexes labeled by FITC (which indicated the presence of avidin) and/or PE (which indicated the presence of antibody to HGF) were detected on a Becton Dickinson Bioscience FACScan (BD, Franklin Lakes, N.J.).

T1 sequence (Q08048 33-728 limits assumed): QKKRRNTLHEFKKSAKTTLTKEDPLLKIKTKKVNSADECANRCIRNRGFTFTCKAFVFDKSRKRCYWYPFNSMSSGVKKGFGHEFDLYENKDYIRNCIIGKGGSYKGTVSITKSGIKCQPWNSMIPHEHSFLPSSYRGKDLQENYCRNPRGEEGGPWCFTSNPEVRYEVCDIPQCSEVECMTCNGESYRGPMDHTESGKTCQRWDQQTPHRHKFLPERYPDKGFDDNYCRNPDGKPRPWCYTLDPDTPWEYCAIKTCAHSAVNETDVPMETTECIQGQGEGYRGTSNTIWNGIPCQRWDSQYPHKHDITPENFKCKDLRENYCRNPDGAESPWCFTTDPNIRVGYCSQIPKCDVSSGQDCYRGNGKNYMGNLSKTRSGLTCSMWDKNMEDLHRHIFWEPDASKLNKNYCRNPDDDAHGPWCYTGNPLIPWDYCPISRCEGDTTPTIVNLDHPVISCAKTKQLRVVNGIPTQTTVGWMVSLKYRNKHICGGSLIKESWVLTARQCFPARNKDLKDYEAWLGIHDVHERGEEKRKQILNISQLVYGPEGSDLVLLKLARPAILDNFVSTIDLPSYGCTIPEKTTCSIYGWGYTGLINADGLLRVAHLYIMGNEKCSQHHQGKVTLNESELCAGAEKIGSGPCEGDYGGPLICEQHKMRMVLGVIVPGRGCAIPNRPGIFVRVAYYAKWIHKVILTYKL
T2 sequence (P14210 32-728 limits assumed): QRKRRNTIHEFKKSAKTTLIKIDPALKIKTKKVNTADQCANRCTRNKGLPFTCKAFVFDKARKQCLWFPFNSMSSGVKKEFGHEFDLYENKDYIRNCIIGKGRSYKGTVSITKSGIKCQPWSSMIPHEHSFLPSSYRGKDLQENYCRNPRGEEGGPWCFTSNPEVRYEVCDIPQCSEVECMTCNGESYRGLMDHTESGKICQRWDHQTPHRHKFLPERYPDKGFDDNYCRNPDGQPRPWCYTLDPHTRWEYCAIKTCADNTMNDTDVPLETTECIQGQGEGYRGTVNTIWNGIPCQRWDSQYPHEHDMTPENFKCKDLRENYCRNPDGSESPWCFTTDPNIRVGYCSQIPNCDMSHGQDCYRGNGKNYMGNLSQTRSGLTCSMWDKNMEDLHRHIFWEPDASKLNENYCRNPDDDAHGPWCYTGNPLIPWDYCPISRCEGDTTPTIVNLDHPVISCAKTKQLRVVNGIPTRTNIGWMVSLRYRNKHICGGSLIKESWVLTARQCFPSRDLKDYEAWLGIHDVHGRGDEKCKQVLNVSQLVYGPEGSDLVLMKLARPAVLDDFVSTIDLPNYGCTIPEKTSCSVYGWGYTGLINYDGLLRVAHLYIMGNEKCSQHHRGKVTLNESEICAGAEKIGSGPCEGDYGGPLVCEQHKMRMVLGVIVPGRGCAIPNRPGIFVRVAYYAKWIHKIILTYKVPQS

Binder	binding result (mouse HGF [1])	IC50 [2]	IC50 [3]	IC50, inhibition of growth/survival of U-87 MG cells [4]	Kd [5]	Kd [6]	koff [6]	kon [6]	binding result (mouse HGF [7])
B1	no binding (tested: 100 ng and 10 ng per lane)	9.36 nM	2.6 nM	< 100 nM					
B2		2.31 nM	3.7 nM	< 100 nM	0.041 nM	~0.36 nM	4.7e-05 s⁻¹	130000 M⁻¹ s⁻¹	no binding
B3	no binding (tested: 100 ng and 10 ng per lane)			< 100 nM					
B4	no binding (tested: 100 ng and 10 ng per lane)	0.72 nM	1 nM	< 100 nM		~0.78 nM	2.8e-05 s⁻¹	36000 M⁻¹ s⁻¹	
B5	no binding (tested: 100 ng and 10 ng per lane)		1 nM	< 100 nM					
B6	no binding (tested: 100 ng and 10 ng per lane)	1.93 nM	3.2 nM	< 100 nM	0.034 nM	~0.79 nM	4.8e-05 s⁻¹	62000 M⁻¹ s⁻¹	
B7	no binding (tested: 100 ng and 10 ng per lane)	2.59 nM		< 100 nM					
B8		0.37 nM	0.9 nM	< 100 nM		~0.47 nM	3e-05 s⁻¹	65000 M⁻¹ s⁻¹	no binding
